B1: M12-E01.G4.P: full-length human IgG4.P version of Fab M12-E01 (antibody, V domains shown)
VH: EVQLLESGGGLVQPGGSLRLSCAASGFTFSPYSMLWVRQAPGKGLEWVSSIGSSGGSTRYADSVKGRFTISRDNSKNTLYLQMNSLRAEDTAMYYCARVRGILHYDILIGRNLYYYYMDVWGKGTTVTVSS
VL: QYELTQPPSVSEAPRQRVTISCSGSSSNIGNNAINWYQQLPGKPPKLLIYYDDLLPSGVSDRFSGSKSGTSGSLAISGLQSEDEADYYCAAWDDNLNGVIFGGGTKLTVL
B2: M14-C03.G4.P: full-length human IgG4.P version of Fab M14-C03 (antibody, V domains shown)
VH: EVQLLESGGGLVQPGGSLRLSCAASGFTFSKYMMSWVRQAPGKGLEWVSYISPSGGLTWYADSVKGRFTISRDNSKNTLYLQMNSLRAEDTAVYYCARDGARGYGMDVWGQGTTVTVSS
VL: DIQMTQSPATLSLSPGERATLSCRASQSVSSYLAWYQQKPGQAPRLLIYDASNRATGIPARFSGSGSGTDFTLTISSLEPEDFAVYYCQQRSNWPPEVTFGPGTKVDIK
B3: M12-G04.G4.P: full-length human IgG4.P version of Fab M12-G04 (antibody, V domains shown)
VH: EVQLLESGGGLVQPGGSLRLSCAASGFTFSKYTMHWVRQAPGKGLEWVSSIVSSGGWTDYADSVKGRFTISRDNSKNTLYLQMNSLRAEDTAVYYCARDRSIAAAGTGWSVSFVDWFDPWGQGTLVTVSS
VL: DIQMTQSPLSLSASVGDRVTITCRASQSINGYLNWYQQKPGKAPNLLIYATSSLQSGVPSRFSGSGSGTDFTLTISSLQPEDFATYYCQQSYSTPPYTFGQGTKLEIK

The molecules below were run against T1, IGF-1R (Homo sapiens, UniProt P08069) (assay: Ligand blocking assay (RIA): 125I-IGF-1 / 125I-IGF-2 binding to immobilized IGF-1R). Settings: 100 nM-0.01 nM antibody, IGF-1R-Fc.
T1 construct: human IGF-1R(1-903)-Fc (denoted hIGF-1R-Fc, generated by Biogen Idec)
Description: Ligand blocking assay (RIA). […] Insulin (Arg-Insulin, Cat #01-207) was purchased from Upstate Cell Signaling Solutions (Lake Placid, N.Y. (now part of Millipore, Concord, Mass. (USA)). ^125I-rhIGF-1 (Cat # IM172), ^125I-rhIGF-2 (Cat# IM238) and ^125I-rhInsulin (Cat# IM166) were purchased from Amersham Biosciences (Piscataway, N.J.). AffiPure goat anti-human IgG, Fcγ fragment specific antibodies (Cat #109-005-098, Jackson ImmunoResearch, West Grove, Pa.) was used for IGF-1R-Fc capture. As detection antibody, goat anti-mouse IgG HRP (Cat #1030-05, Southern Biotech Birmingham, Ala.) was used.
Human insulin receptor α-subunit specific antibodies, Clone 83-14, (Cat #AHR0221, Biosource International, Inc., Camarillo, Calif.) and the 47-9 (Cat #E55502M, Biodesign International, Saco, M E) were used as positive controls blocking of insulin-insulin receptor binding experiments. Recombinant IGF-1R-Fc fusion protein was produced at Biogen Idec (Cambridge, Mass.).
As isotype matched mouse negative control antibodies, 2B8 (murine α-CD20.1gG,) and 2B8 mkm.G2a (murine α-CD20 MAb, IgG2a, Biogen Idec, Lot #NB3304-87, San Diego, Calif.) were used. The negative control for Fabs was R001-1B provided by Christilyn Graff (Biogen Idec, Cambridge, Mass.). PBS used in buffers was from BioWhittaker (Cat. # 17-513F, Walkersville, Md.).
Recombinant human IGF-1R (Histidine tagged version) or IGF-1R-Fc was coated onto IMMULON2 HB (high binding) Removawell strips (Dynex Technologies, Inc., cat. #6302) diluted with carbonate coating buffer pH 9.5 to a concentration of 250 ng/well. After overnight incubation at 4° C., the wells were washed three times with washing buffer (0.05% Tween 20/PBS) then blocked with blocking buffer (3% BSA/PBS) for one hour at room temperature. The blocking buffer was removed and the wells washed three more times. Antibody, Fab, or ligand preparations were diluted to desired concentration with dilution buffer (1% BSA/0.05% Tween 20/PBS) and plated at 50 μl per well in duplicate. After 45 minutes at room temperature, 100,000 cpm of either [125I] rhIGF-1 or [125I] rhIGF-2 in 50 μl dilution buffer was added per well. This was incubated at room temperature for one more hour. The wells were washed again three more times and left liquid free after the last wash. The air-dried wells were counted with the Isodata Gamma Counter.
Alternatively, Fabs were evaluated by a modified capture assay, where the IGF-1R-Fc was captured using anti-human IgG immobilized to a plate. Immobilization was carried out by overnight incubation of goat anti-human IgG, Fcγ fragment specific antibody (200 ng/well) in carbonate coating buffer. The wells were washed, blocked and 250 ng of IGF-1R-Fc was added per well.
The ligand blocking ability of the anti-IGF-1R antibody was determined by a solid phase RIA capture method as described in Example 3. […] After 1 hour of incubation at room temperature, the wells were washed and counted for bound radioactivity by a Gamma Counter. An isotype matched negative antibody control, IDEC-151 (human G4), was used. Percent (%) inhibition was calculated as =[1−(Ave.CPM with Ab)/(Ave.CPM with buffer)]×100%.

Row | Molecule | blocking of IGF-1 and IGF-2 binding to IGF-1R
1 | B1 | block both IGF-1 and IGF-2 binding
2 | B2 | blocked only IGF-2 binding
3 | B3 | block both IGF-1 and IGF-2 binding

Reference: patent publication US20090291088A1, “THERAPEUTIC COMBINATIONS OF ANTI-IGF-1R ANTIBODIES AND OTHER COMPOUNDS” (Biogen Idec MA Inc., priority 2008, published 2009)
